Positions count from the first letter of the chain named. Names may count otherwise.
Columns and labels:
Settings in all cases: both partners purified
[1] = target: T1, RPA–Y193A–GFP (RPA complex harboring rfa1–Y193A) (yeast (S. cerevisiae), UniProt P22336 1-621; P26754 1-273; P26755 1-122, Y193A); test: single-molecule DNA Curtains (TIRF microscopy); quantum-dot labelled Dna2 variants on ssDNA coated with RPA–GFP variants; NaCl concentration of these results not told in the text (conditions in Supplementary Table 1)
T1 construct: Rfa1, large subunit of yeast RPA, with Y193A in the linker between Rfa1-N and DBD-A; Rfa2, middle subunit of yeast RPA; Rfa3, small subunit of yeast RPA; GFP is fused to one subunit and kept in the assay; preparation not described; also called RPA complex harboring rfa1–Y193A mutant; copies: + +

[2] = target: T2, RPA–GFP (yeast (S. cerevisiae), UniProt P22336 1-621; P26754 1-273; P26755 1-122); test: as above
T2 construct: Rfa1, large subunit of yeast RPA; Rfa2, middle subunit of yeast RPA; Rfa3, small subunit of yeast RPA; GFP is fused to one subunit and kept in the assay (it is imaged); Coats the ssDNA of the DNA Curtains; also called RPA (green) on ssDNA; copies: + +
T2 sequence (P26754 whole entry, chain 2 of 2, the tested form may be a part): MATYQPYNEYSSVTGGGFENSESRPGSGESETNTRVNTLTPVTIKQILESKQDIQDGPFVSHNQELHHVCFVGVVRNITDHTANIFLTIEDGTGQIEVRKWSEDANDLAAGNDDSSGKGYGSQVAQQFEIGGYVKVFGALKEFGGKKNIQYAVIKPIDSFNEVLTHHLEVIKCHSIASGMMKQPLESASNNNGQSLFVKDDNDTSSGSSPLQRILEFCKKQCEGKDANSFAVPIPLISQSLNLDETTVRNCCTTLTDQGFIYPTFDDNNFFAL
T2 sequence (P26755 whole entry, chain 3 of 2, the tested form may be a part): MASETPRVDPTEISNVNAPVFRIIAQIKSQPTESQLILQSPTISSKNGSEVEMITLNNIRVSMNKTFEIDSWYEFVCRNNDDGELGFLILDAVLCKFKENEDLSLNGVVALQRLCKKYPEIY

[3] = target: T3, dna2-D657A (nuclease-dead Dna2) (S. cerevisiae, UniProt P38859 1-1522, D657A); test: native gel or EMSA; ternary complex of dna2-D657A variants (20 nM), Rfa1 truncations or mutants (20 nM) and 5 nM dT(20) ssDNA; 150 mM KCl, 30 °C, 4% native gel
T3 construct: Dna2, Saccharomyces cerevisiae, nuclease-dead version; Purified as the other Dna2 variants; FLAG tag used for quantum-dot labelling in DNA Curtains; also called dna2-D657A mutant; source: over-expressed in yeast, purified (Ni-NTA, anti-FLAG-M2 resin)

B1: Dna2 (wild type, FLAG-His6-tagged) (enzyme, S. cerevisiae, UniProt P38859 1-1522, looked up)
chain: MPGTPQKNKRSASISVSPAKKTEEKEIIQNDSKAILSKQTKRKKKYAFAPINNLNGKNTKVSNASVLKSIAVSQVRNTSRTKDINKAVSKSVKQLPNSQVKPKREMSNLSRHHDFTQDEDGPMEEVIWKYSPLQRDMSDKTTSAAEYSDDYEDVQNPSSTPIVPNRLKTVLSFTNIQVPNADVNQLIQENGNEQVRPKPAEISTRESLRNIDDILDDIEGDLTIKPTITKFSDLPSSPIKAPNVEKKAEVNAEEVDKMDSTGDSNDGDDSLIDILTQKYVEKRKSESQITIQGNTNQKSGAQESCGKNDNTKSRGEIEDHENVDNQAKTGNAFYENEEDSNCQRIKKNEKIEYNSSDEFSDDSLIELLNETQTQVEPNTIEQDLDKVEKMVSDDLRIATDSTLSAYALRAKSGAPRDGVVRLVIVSLRSVELPKIGTQKILECIDGKGEQSSVVVRHPWVYLEFEVGDVIHIIEGKNIENKRLLSDDKNPKTQLANDNLLVLNPDVLFSATSVGSSVGCLRRSILQMQFQDPRGEPSLVMTLGNIVHELLQDSIKYKLSHNKISMEIIIQKLDSLLETYSFSIIICNEEIQYVKELVMKEHAENILYFVNKFVSKSNYGCYTSISGTRRTQPISISNVIDIEENIWSPIYGLKGFLDATVEANVENNKKHIVPLEVKTGKSRSVSYEVQGLIYTLLLNDRYEIPIEFFLLYFTRDKNMTKFPSVLHSIKHILMSRNRMSMNFKHQLQEVFGQAQSRFELPPLLRDSSCDSCFIKESCMVLNKLLEDGTPEESGLVEGEFEILTNHLSQNLANYKEFFTKYNDLITKEESSITCVNKELFLLDGSTRESRSGRCLSGLVVSEVVEHEKTEGAYIYCFSRRRNDNNSQSMLSSQIAANDFVIISDEEGHFCLCQGRVQFINPAKIGISVKRKLLNNRLLDKEKGVTTIQSVVESELEQSSLIATQNLVTYRIDKNDIQQSLSLARFNLLSLFLPAVSPGVDIVDERSKLCRKTKRSDGGNEILRSLLVDNRAPKFRDANDDPVIPYKLSKDTTLNLNQKEAIDKVMRAEDYALILGMPGTGKTTVIAEIIKILVSEGKRVLLTSYTHSAVDNILIKLRNTNISIMRLGMKHKVHPDTQKYVPNYASVKSYNDYLSKINSTSVVATTCLGINDILFTLNEKDFDYVILDEASQISMPVALGPLRYGNRFIMVGDHYQLPPLVKNDAARLGGLEESLFKTFCEKHPESVAELTLQYRMCGDIVTLSNFLIYDNKLKCGNNEVFAQSLELPMPEALSRYRNESANSKQWLEDILEPTRKVVFLNYDNCPDIIEQSEKDNITNHGEAELTLQCVEGMLLSGVPCEDIGVMTLYRAQLRLLKKIFNKNVYDGLEILTADQFQGRDKKCIIISMVRRNSQLNGGALLKELRRVNVAMTRAKSKLIIIGSKSTIGSVPEIKSFVNLLEERNWVYTMCKDALYKYKFPDRSNAIDEARKGCGKRTGAKPITSKSKFVSDKPIIKEILQEYES
notes: Dna2 nuclease-helicase, Saccharomyces cerevisiae, wild type; Wild-type protein; In DNA Curtains it was labelled with anti-FLAG quantum dots; in MST with the His-tag labelling kit RED-tris-NTA; also called wild-type Dna2; (His)6-tagged Dna2; source: over-expressed in yeast, purified (Ni-NTA, anti-FLAG-M2 resin)
recruitment relative to wild-type RPA [1]: 80%

B2: dna2-AC (dna2-D357A,E358A,D361A,D362A,E366A), FLAG-His6-tagged (enzyme, S. cerevisiae, UniProt P38859 1-1522, looked up)
chain: B1 chain with D357A, E358A, D361A, D362A, E366A
notes: Dna2, Saccharomyces cerevisiae, with all acidic residues of the second acidic patch (amino acid 355-366) changed to alanine; source: over-expressed in yeast, purified (Ni-NTA, anti-FLAG-M2 resin)
fold less recruitment than wild-type Dna2 [2]: ~2 fold

B3: Rfa1-N-DBD-A/B (Rfa1–NAB, amino acid 1–435) (domain or fragment, yeast (S. cerevisiae), UniProt P22336 1-435, looked up)
chain: MSSVQLSRGDFHSIFTNKQRYDNPTGGVYQVYNTRKSDGANSNRKNLIMISDGIYHMKALLRNQAASKFQSMELQRGDIIRVIIAEPAIVRERKKYVLLVDDFELVQSRADMVNQTSTFLDNYFSEHPNETLKDEDITDSGNVANQTNASNAGVPDMLHSNSNLNANERKFANENPNSQKTRPIFAIEQLSPYQNVWTIKARVSYKGEIKTWHNQRGDGKLFNVNFLDTSGEIRATAFNDFATKFNEILQEGKVYYVSKAKLQPAKPQFTNLTHPYELNLDRDTVIEECFDESNVPKTHFNFIKLDAIQNQEVNSNVDVLGIIQTINPHFELTSRAGKKFDRRDITIVDDSGFSISVGLWNQQALDFNLPEGSVAAIKGVRVTDFGGKSLSMGFSSTLIPNPEIPEAYALKGWYDSKGRNANFITLKQEPGMGGQ
notes: Rfa1 of yeast RPA, residues 1-435 (N, DBD-A and DBD-B domains); The 6xHis tag can optionally be removed by TEV protease; also called NAB polypeptide; pHis–Rfa1 1–435; source: E. coli BL21 codon plus, purified (Ni-NTA, Superdex 200)
binding result [3]: binds

B4: rfa1–NAB–K45E (pHis-Rfa1 1-435 K45E) (domain or fragment, yeast (S. cerevisiae), UniProt P22336 1-435, looked up)
chain: B3 chain with K45E
notes: Rfa1 of yeast RPA, residues 1-435, charge reversal in the basic cleft of Rfa1-N; also called rfa1–t11; rfa1–K45E; source: E. coli BL21 codon plus, purified (Ni-NTA, Superdex 200)
binding result [3]: binds
